Our source for the binding result and Kd values is publication PMC3177201.

Data set [1] deals with T1, Prp24 oRRM4 (Saccharomyces cerevisiae, UniProt P49960 292-400).
T1 sequence: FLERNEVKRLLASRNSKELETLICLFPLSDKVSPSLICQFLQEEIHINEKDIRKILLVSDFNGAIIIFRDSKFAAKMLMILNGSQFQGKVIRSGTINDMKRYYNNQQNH
Description: fluorescence anisotropy.

Data set [2] addresses T1, Prp24 oRRM4. The data set can be described thus: fluorescence anisotropy. This is another data set of the same source.

B1: U2 nt 1-51, 5'-FITC (ssRNA)
RNA: ACGAAUCUCUUUGCCUUUUGGCUUAGAUCAAGUGUAGUAUCUGUUCUUUUC
For B1, the binding result with Prp24 oRRM4 [1] is “binds”. AGAGAUGAUCAGCAGUUCCCCUGCAUAAGGAUGAACCGUU (structured_RNA) [U6 nt 49-88, 5'-Cy5]: the Kd in the data set with Prp24 oRRM4 [2] is 3.1 µM.

A word on the Kd: it is the concentration at which binding is half-saturated. The low end stands for a tighter complex, the high end for a looser complex.
